Tests used:
maize plants [1] = test: T1 field glyphosate spray of maize expressing GAT transgenes; format: in vivo; conditions: 0×, 4×, 8×, and 4×+4× sprays at V3 and V8; scored 10 days after treatment
Description: Maize plants expressing GAT variant transgenes 18-28D9b (SEQ ID NO:814) and 17-15H3 (SEQ ID NO:549) were produced using the methods described in Example 13. T1 plants were used for the generation of glyphosate field-tolerance data. The T1 plants were treated in the field with four different glyphosate spray treatments (0×, 4×, 8×, and 4×+4×) for each event. The plants were sprayed at V3 and V8. Plants were scored 10 days after treatment for leaf discoloration and plant height comparisons as described in Example 13. […] T2 seeds were collected for further studies.

maize plants [2] = test: Effect of temperature variation on glyphosate tolerance of T1 maize expressing GAT transgenes; format: in vivo; conditions: cool/cold, warm and hot conditions; 0×, 4×, 6×, 8× at V2; scored at 5 and 14 days
Description: Maize plants expressing GAT variant transgenes 10—4F2 (SEQ ID NO:202), 17-15H3 (SEQ ID NO:549), and 18-28D9b (SEQ ID NO:814) were produced using the methods described in Example 13. The effect of temperature on glyphosate tolerance was evaluated in T1 plants. The T1 plants were grown in cool/cold (day 14° C., night 8° C.), warm (day 28° C., night 20° C.), and hot (day 37° C., night 20° C.) conditions. T1 plants were sprayed at V2 with four different glyphosate spray treatments (0×, 4×, 6×, and 8×). Plants were scored at 5 and 14 days after treatment for leaf discoloration and plant height comparisons as described in Example 13.

[3] = GAT activity (acetylation of glyphosate), general statements; format: biochemical; conditions: native YitI of Bacillus subtilis
Text: As used herein, the term “glyphosate-N-acetyltransferase activity” or “GAT activity” refers to the ability to catalyze the acetylation of the secondary amine group of glyphosate, as illustrated, for example, in FIG. 1. A “glyphosate-N-acetyltransferase” or “GAT” is an enzyme that catalyzes the acetylation of the amine group of glyphosate, a glyphosate analog, and/or a glyphosate primary metabolite (i.e., AMPA or sarcosine). In some preferred embodiments of the invention, a GAT is able to transfer the acetyl group from Acetyl CoA to the secondary amine of glyphosate and the primary amine of AMPA. […] The exemplary GATs described herein are active from pH 5-9, with optimal activity in the range of pH 6.5-8.0. Activity can be quantified using various kinetic parameters which are well known in the art, e.g., kcat, KM, and kcat/KM. These kinetic parameters can be determined as described below in Example 7.

[4] = Standard protocol for determination of kcat and KM (continuous spectrophotometric assay, Acetyl CoA hydrolysis at 235 nm); format: biochemical; conditions: purified protein; about 23° C.; 20 mM HEPES pH 6.8, 10% ethylene glycol, 0.2 mM acetyl CoA
Summary of the method: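 KM from initial rates over 0.125–10 mM glyphosate, fitted by Lineweaver-Burke transformation of Michaelis-Menten; kcat/KM computed as kcat divided by KM. Continuous spectrophotometric read of acetyl-CoA hydrolysis at 235 nm.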

[5] = Transfer of the propionyl group from propionyl CoA to glyphosate (DTNB); format: biochemical; conditions: 1 mM propionyl CoA, 5 mM glyphosate or no glyphosate, 30 minutes
Description: The ability of GAT variants (B6 (SEQ ID NO:7), 0—6D10 (SEQ ID NO:448), 17-15H3 (SEQ ID NO:601), and 20-8H12 (SEQ ID NO:816)) to transfer the propionyl group from propionyl CoA to glyphosate was tested in reaction mixtures containing 5 mM glyphosate or no glyphosate. Propionyl CoA was present at 1 mM. After 30 minutes the reactions were terminated and the presence of free […] was determined by the addition of DTNB.

[6] = KM for Acetyl CoA by mass spectrometric detection of N-acetyl glyphosate; format: biochemical; conditions: for Km: read-out: apparent KM for Acetyl CoA, 5 mM glyphosate, 0.19 μM GAT, pH 7.7, 50% methanol
Description: Initial reaction rates were determined using mass spectrometric detection of N-acetyl glyphosate. Five μl were repeatedly injected into the instrument and reaction rates were obtained by plotting reaction time vs. area of the integrated peak (FIG. 6). Hyperbolic saturation kinetics were observed (FIG. 7), from which an apparent KM of 2 μM was derived.
KM for Acetyl CoA was measured using the mass spectrometry method with repeated sampling during the reaction. AcetylCoA and glyphosate (ammonium salts) were placed as 50-fold-concentrated stock solutions into a well of a mass spectrometry sample plate. Reactions were initiated with the addition of enzyme appropriately diluted in a volatile buffer such as morpholine acetate or ammonium carbonate, pH 6.8 or 7.7. The sample was repeatedly injected into the instrument and initial rates were calculated from plots of […] and peak area. KM was calculated as for glyphosate.

[7] = Apparent KM for glyphosate of purified GAT from B. licheniformis strain B6 (spectrophotometric, 235 nm); format: biochemical; conditions: 200 μM Acetyl CoA, 1 μM purified GAT, pH 7.7, 20% ethylene glycol
Text: Hyperbolic saturation kinetics were observed (FIG. 5), from which an apparent KM of 2.9±0.2 (SD) mM was obtained.

B1: SEQ ID NO:549: GAT variant transgene (nucleic acid)
DNA: ATGATAGAGGTGAAACCGATTAACGCAGAGGATACCTATGAACTAAGGCATAGAATACTCAGACCAAACCAGCCGATAGAAGCGTGTATGTTTGAAAGCGATTTACTTCGTGGTGCATTTCACTTAGGCGGCTATTACGGGGGCAAACTGATTTCCATAGCTTCATTCCACCAGGCCGAGCACTCAGAACTCCAAGGCCAGAAACAGTACCAGCTCCGAGGTATGGCTACCTTGGAAGGTTATCGTGAGCAGAAGGCGGGATCGAGTCTAATTAAACACGCTGAAGAAATTCTTCGTAAGAGGGGGGCGGACTTGCTTTGGTGTAATGCGCGGACATCCGCCTCAGGCTACTACAAAAAGTTAGGCTTCAGCGAGCAGGGAGAGGTATTCGACACGCCGCCAGTAGGACCTCACATCCTGATGTATAAAAGGATCACATAA
modifications: Synthetic DNA Sequence; D_S00260796_17-15H3
notes: GAT variant transgene
In the case of B1, the “T1 field glyphosate tolerance” value (maize plants [1]) is reported as “correlated well with the results previously obtained in the greenhouse” and the “effect of temperature on glyphosate tolerance” value (from here on “effect of temperature”) (maize plants [2]) is reported as “glyphosate tolerance is not adversely effected by the range of temperatures tested”.

B2: YitI: most closely related sequence available in Genbank, yitI from Bacillus subtilis (protein, UniProt O06744 1-149, looked up)
Uncharacterized …: MLEVKTISVEDTYEIRHRILRPHQSIEQCKYKEDHAEGSFHLGVFYDGTLISIASFSPQSQPLLTEASAYRLRGMATLEGYRDQKAGSTLIKHAEHKLAESGVQAVWCNARHHVKGYYAKLGWKELGEPFDIPGIGNHIVMYKTLRTSR
For B2, the GAT activity [3] was “detectable GAT activity”.

B3: SEQ ID NO: 448: GAT polypeptide (protein)
chain: MLEVKPINAEDTYELRHKILRPNQPLEVCMYETDLLRGAFHLGGFYRGKLISIASFHQAEHSDLQGQKQYQLRGMATLEGYRDQKAGSSLIRHAEQILRKRGADMLWCNARTSASGYYKKLGFSEQGEVFETPPVGPHILMYKRLT
modifications: 0_6D10
notes: GAT polypeptide
With B3 the Kcat [4] was 1.85 s⁻¹ and the “transfer of propionyl group to glyphosate” value (from here on “transfer of propionyl group”) [5] was “glyphosate-dependent hydrolysis of propionyl CoA”.

B4: SEQ ID NO:814: GAT variant transgene (nucleic acid)
DNA: ATGATAGAGGTGAAACCGATTAACGCAGAGGATACCTATGAACTAAGGCATAGAATACTCAGACCAAACCAGCCGATAGAAGCGTGTATGTTTGAAAGCGATTTACTTCGTGGTGCATTTCACTTAGGCGGCTTTTACAGGGGCAAACTGATTTCCATAGCTTCATTCCACCAGGCCGAGCACTCGGAACTCCAAGGCCAGAAACAGTACCAGCTCCGAGGTATGGCTACCTTGGAAGGTTATCGTGAGCAGAAAGCGGGATCAACTCTAGTTAAACACGCTGAAGAAATCCTTCGTAAGAGGGGGGCGGACATGCTTTGGTGTAATGCGCGGACATCCGCCTCAGGCTACTACAAAAAGTTAGGCTTCAGCGAGCAGGGAGAGATATTTGACACGCCGCCAGTAGGACCTCACATCCTGATGTATAAAAGGATCACATAA
modifications: Synthetic DNA Sequence; CDS (1)...(441); 18-28D9b
notes: GAT variant transgene
For B4, the “T1 field glyphosate tolerance” value (maize plants [1]) was “correlated well with the results previously obtained in the greenhouse” and the “effect of temperature” value (maize plants [2]) was “glyphosate tolerance is not adversely effected by the range of temperatures tested”.

B5: SEQ ID NO:202: GAT variant transgene (nucleic acid)
DNA: ATGCTAGAGGTGAAACCGATTAACGCAGAGGATACCTATGAACTAAGGCATAGAATACTCAGACCAAACCAGCCGATAGAAGCGTGTATGTTTGAAAGCGATTTACTTCGTGGTGCATTTCACTTAGGCGGCTTTTACAGGGGCAAACTGATTTCCATAGCTTCATTCCACCAGGCCGAGCACTCAGAACTCCAAGGCCAGAAACAGTACCAGCTCCGAGGTATGGCTACCTTGGAAGGTTATCGTGAGCAGAAAGCGGGATCGAGTCTAATTAGACACGCTGAAGAAATTCTTCGTAAGAGGGGGGCGGACATGCTTTGGTGTAATGCGCGGACATCCGCCTCAGGCTACTACAAAAAGTTAGGCTTCAGCGAGCAGGGAGAGATATTTGAAACGCCGCCAGTAGGACCTCACATCCTGATGTATAAAAGGCTCACATAA
modifications: Synthetic DNA Sequence; 10_4F2
notes: GAT variant transgene
For B5, the “effect of temperature” value (maize plants [2]) was “glyphosate tolerance is not adversely effected by the range of temperatures tested”.

B6: SEQ ID NO:601: GAT variant polypeptide (protein)
chain: MIEVKPINAEDTYELRHRILRPNQPIEACMFESDLLRGAFHLGGYYGGKLISIASFHQAEHSELQGQKQYQLRGMATLEGYREQKAGSSLIKHAEEILRKRGADLLWCNARTSASGYYKKLGFSEQGEVFDTPPVGPHILMYKRIT
modifications: D_S00260796_17-15H3
notes: GAT variant polypeptide
For B6, the “transfer of propionyl group” value [5] was “glyphosate-dependent hydrolysis of propionyl CoA”.

B7: SEQ ID NO:816: GAT variant (protein)
chain: MIEVKPINAEDTYELRHRVLRPNQPIEACIFESDLMRGAFHLGGFYGGRLISVASFHQAEHSELQGQKQYQLRGMATLEGYREQKAGSSLVKHAEEILRKRGADLLWCNARTSASGYYKKLGFSEQGEVFDTPPVGPHILMYKRIT
modifications: Synthetic DNA Sequence; CDS (1)...(441); 20-8H12c
notes: GAT variant
For B7, the “transfer of propionyl group” value [5] was “glyphosate-dependent hydrolysis of propionyl CoA”.

B8: SEQ ID NO:7: GAT enzyme isolated from a strain of B. licheniformis (strain B6) (protein)
chain: MIEVKPINAEDTYEIRHRILRPNQPLEACKYETDLLGGTFHLGGYYRDRLISIASFHQAEHSELEGQKQYQLRGMATLEGYREQKAGSTLIRHAEELLRKKGADLLWCNARTSVSGYYKKLGFSEQGGVYDIPPIGPHILMYKKLT
modifications: Unidentified microorganism derived from soil sample.; B6 GAT
For B8, the Kcat ([6]; calculated from Vmax at a known concentration of enzyme) was 0.1 s⁻¹, the Km [6] was roughly 2 µM and the Km ([6]; listed as B6) was 2 µM. For the same molecule, the Km [7] was roughly 2900 µM, the Km ([7]; listed as B6) was 2900 ± 200 µM and the “transfer of propionyl group” value [5] was “glyphosate-dependent hydrolysis of propionyl CoA”.

From patent publication US8008547B2, “Glyphosate-N-acetyltransferase (GAT) genes” (E.I. duPont de Nemours, priority 2000, dated 2011)
